The values that follow come from paper PMC10439124.

For orientation: stoichiometry N means the number of molecules, sites or subunits per partner or assembly.

This experiment concerns the target Pfs230D1-E2p fusion protein (Pfs230D1-linker-E2p), 60-copy nanoparticle (Plasmodium falciparum (3D7) | Geobacillus stearothermophilus) (UniProt P68874). Description: SEC-MALS + other: SEC-SAXS; SIBYLS beamline 12.3.1; the sample was injected into a size-exclusion column and a post-column splitter directed the eluate to the MALS and SAXS systems; molecular weight from Astra 6 (MALS) and PRIMUS/ATSAS (SAXS). Background: Size exclusion chromatography separates by hydrodynamic size, large species first.

For the substance “Pfs230D1-E2p fusion protein (Pfs230D1-linker-E2p), 60-copy nanoparticle (from UniProt P68874 542-736)”, the stoichiometry N stood at 60.
